# Test results as given in patent US20250235548A1 (Zymeworks, published 2025).
# Like-named read-outs stand apart in the source and are kept apart here.
# T1: human sodium-dependent phosphate transporter 2B (NaPi2b) (human, UniProt O95436 1-690)
# T1 sequence: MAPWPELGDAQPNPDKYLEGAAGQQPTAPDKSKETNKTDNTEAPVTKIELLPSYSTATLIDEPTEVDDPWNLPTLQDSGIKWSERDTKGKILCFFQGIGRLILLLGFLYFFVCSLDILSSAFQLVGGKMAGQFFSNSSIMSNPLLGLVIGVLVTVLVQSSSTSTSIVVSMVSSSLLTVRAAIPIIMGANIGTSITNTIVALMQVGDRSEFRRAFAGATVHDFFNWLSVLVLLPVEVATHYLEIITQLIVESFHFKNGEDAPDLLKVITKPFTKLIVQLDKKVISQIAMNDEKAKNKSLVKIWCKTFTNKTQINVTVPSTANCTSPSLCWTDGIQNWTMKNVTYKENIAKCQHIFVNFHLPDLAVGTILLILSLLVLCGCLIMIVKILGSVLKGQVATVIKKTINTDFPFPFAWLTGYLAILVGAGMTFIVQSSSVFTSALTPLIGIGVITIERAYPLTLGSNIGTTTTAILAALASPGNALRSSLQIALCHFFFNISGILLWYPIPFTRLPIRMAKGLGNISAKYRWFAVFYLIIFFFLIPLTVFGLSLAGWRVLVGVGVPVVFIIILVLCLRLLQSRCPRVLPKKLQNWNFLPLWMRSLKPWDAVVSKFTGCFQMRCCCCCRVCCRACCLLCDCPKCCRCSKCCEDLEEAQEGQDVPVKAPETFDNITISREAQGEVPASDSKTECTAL
# B1: v29452 humanized anti-NaPi2b antibody (antibody, human IgG1, kappa, V domains shown)
# VH: QVQLVQSGAEVKKPGASVKVSCKASGFTFTSYNVHWVRQAPGQGLEWMGAISPGNGDLSYAQKFQGRVTMTRDTSTSTVYMELSSLRSEDTAVYYCARGRTGMGAVDYWGQGTLVTVSS
# VL: DVQMTQSPSSLSASVGDRVTITCRASQDVYSYLNWYQQKPGKAVKLLIYYTSRLQSGVPSRFSGSGSGTDYTLTISSLQPEDIATYYCQQYNIFPWTFGQGTKLEIKR
# notes: Full-size IgG1/kappa; also called H1L3
# B2: v18993 (lifastuzumab)-MCvcPABC-MMAE DAR 4 (antibody, human IgG1, kappa)
# heavy 1: GEVQLVESGGGLVQPGGSLRLSCAASGFSFSDFAMSWVRQAPGKGLEWVATIGRVAFHTYYPDSMKGRFTISRDNSKNTLYLQMNSLRAEDTAVYYCARHRGFDVGHFDFWGQGTLVTVSSASTKGPSVFPLAPSSKSTSGGTAALGCLVKDYFPEPVTVSWNSGALTSGVHTFPAVLQSSGLYSLSSVVTVPSSSLGTQTYICNVNHKPSNTKVDKKVEPKSCDKTHTCPPCPAPELLGGPSVFLFPPKPKDTLMISRTPEVTCVVVDVSHEDPEVKFNWYVDGVEVHNAKTKPREEQYNSTYRVVSVLTVLHQDWLNGKEYKCKVSNKALPAPIEKTISKAKGQPREPQVYVYPPSRDELTKNQVSLTCLVKGFYPSDIAVEWESNGQPENNYKTTPPVLDSDGSFALVSKLTVDKSRWQQGNVFSCSVMHEALHNHYTQKSLSLSPG
# heavy 2: not shown
# light: GDIQMTQSPSSLSASVGDRVTITCRSSETLVHSSGNTYLEWYQQKPGKAPKLLIYRVSNRFSGVPSRFSGSGSGTDFTLTISSLQPEDFATYYCFQGSFNPLTFGQGTKVEIKRTVAAPSVFIFPPSDEQLKSGTASVVCLLNNFYPREAKVQWKVDNALQSGNSQESVTEQDSKDSTYSLSSTLTLSKADYEKHKVYACEVTHQGLSSPVTKSFNRGEC
# modifications: MCvcPABC-MMAE drug-linker; DAR 4 for the whole antibody; attachment residues not stated
# B3: v29456-MC-GGFG-AM-DXd1 DAR 8 (antibody, human IgG1, kappa)
# heavy: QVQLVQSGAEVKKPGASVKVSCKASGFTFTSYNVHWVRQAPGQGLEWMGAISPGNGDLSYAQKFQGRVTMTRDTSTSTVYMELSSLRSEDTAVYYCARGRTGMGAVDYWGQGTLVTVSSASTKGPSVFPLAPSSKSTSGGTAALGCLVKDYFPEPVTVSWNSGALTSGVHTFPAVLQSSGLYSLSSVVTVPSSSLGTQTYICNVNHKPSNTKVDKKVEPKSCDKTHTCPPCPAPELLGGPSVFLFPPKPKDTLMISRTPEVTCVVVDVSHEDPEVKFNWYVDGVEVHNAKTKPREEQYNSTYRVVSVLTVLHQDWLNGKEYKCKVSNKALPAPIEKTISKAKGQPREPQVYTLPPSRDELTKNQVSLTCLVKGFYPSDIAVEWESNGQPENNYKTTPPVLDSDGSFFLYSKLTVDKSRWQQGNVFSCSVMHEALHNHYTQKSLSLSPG
# light: DVQMTQSPSSLSASVGDRVTITCRASQDVYSYLNWYQQKPGKAVKLLIYYTSRLQSGVPSRFSGSGSGTDYTLTISSLQPEDFATYYCQQYNIFPWTFGQGTKLEIKRTVAAPSVFIFPPSDEQLKSGTASVVCLLNNFYPREAKVQWKVDNALQSGNSQESVTEQDSKDSTYSLSSTLTLSKADYEKHKVYACEVTHQGLSSPVTKSFNRGEC
# modifications: MC-GGFG-AM-DXd1 drug-linker on reduced cysteines (maleimide); DAR 8 for the whole antibody
# B4: v29456-MC-GGFG-AM-Compound 139 DAR 8 (antibody, human IgG1, kappa)
# heavy: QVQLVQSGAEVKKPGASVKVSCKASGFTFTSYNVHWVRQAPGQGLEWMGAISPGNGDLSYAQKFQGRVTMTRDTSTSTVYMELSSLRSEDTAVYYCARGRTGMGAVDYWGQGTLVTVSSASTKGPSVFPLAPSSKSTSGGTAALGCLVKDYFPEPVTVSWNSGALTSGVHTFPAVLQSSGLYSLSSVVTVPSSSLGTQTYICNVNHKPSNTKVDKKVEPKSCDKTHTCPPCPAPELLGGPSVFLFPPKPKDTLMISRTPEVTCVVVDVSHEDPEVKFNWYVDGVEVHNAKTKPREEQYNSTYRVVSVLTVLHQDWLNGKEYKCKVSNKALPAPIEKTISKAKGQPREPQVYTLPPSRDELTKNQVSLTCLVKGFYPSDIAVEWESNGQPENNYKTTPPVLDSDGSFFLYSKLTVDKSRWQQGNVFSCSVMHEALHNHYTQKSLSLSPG
# light: B3 light
# modifications: MC-GGFG-AM-Compound 139 drug-linker on reduced cysteines (maleimide); DAR 8 for the whole antibody
# B5: v29456-MC-GGFG-Compound 141 DAR 4 (antibody, human IgG1, kappa)
# heavy: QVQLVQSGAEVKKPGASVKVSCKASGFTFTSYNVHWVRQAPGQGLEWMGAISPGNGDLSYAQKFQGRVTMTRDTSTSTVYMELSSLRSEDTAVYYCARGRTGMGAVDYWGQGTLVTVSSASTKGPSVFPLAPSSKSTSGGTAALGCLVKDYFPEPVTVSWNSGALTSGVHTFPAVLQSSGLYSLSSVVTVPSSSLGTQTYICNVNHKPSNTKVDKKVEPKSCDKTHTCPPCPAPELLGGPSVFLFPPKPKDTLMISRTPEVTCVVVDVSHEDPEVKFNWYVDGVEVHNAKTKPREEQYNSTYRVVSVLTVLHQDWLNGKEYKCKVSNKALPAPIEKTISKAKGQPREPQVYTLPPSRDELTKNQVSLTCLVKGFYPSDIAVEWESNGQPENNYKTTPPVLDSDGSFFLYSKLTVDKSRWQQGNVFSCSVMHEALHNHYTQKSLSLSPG
# light: B3 light
# modifications: MC-GGFG-Compound 141 drug-linker on reduced cysteines (maleimide); target DAR 4, printed DAR 3.4, for the whole antibody
# B6: v29456-MC-GGFG-Compound 141 DAR 8 (antibody, human IgG1, kappa)
# heavy: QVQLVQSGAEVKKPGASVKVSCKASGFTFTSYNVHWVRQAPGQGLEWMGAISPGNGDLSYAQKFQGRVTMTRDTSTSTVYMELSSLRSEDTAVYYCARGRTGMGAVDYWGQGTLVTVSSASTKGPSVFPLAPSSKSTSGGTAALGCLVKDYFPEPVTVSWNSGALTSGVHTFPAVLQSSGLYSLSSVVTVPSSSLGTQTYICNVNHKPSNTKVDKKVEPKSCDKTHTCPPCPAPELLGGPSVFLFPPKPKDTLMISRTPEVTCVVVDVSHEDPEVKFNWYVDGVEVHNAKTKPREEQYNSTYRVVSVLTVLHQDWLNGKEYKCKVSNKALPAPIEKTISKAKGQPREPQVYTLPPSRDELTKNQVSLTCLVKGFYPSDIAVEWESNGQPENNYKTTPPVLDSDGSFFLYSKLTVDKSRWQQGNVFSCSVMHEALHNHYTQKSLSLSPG
# light: B3 light
# modifications: MC-GGFG-Compound 141 drug-linker on reduced cysteines (maleimide); DAR 8 for the whole antibody
# B7: v29456-MC-GGFG-AM-Compound 139 DAR 4 (antibody, human IgG1, kappa)
# heavy: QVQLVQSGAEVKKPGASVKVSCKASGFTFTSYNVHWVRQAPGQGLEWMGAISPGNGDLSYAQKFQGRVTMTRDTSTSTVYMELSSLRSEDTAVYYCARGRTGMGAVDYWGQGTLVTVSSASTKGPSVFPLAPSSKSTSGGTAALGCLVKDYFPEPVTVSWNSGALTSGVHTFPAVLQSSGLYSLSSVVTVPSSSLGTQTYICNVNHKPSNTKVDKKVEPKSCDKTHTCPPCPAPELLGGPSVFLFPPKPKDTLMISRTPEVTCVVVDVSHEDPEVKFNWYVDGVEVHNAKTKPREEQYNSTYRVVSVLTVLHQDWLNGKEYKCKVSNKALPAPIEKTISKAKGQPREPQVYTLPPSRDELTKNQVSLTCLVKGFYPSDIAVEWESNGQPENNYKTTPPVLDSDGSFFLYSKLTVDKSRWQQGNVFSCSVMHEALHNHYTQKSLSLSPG
# light: B3 light
# modifications: MC-GGFG-AM-Compound 139 drug-linker on reduced cysteines (maleimide); target DAR 4, printed DAR 3.4, for the whole antibody
# What was measured:
# [1] = molecular target: T2, KLH (Sigma-Aldrich, H8283); experiment: NS-ELISA, plate coated with KLH, mAb at 100 nM; ratio of signal to a buffer well
# T2 construct: Coating protein of the non-specific ELISA (NS-ELISA)
# Method: NS-ELISA was used to measure the propensity of the antibodies to bind to a range of biomolecules to emulate the undesirable non-specific interactions to biological matrices in vivo as described below.
# NS-ELISA was carried out in Corning@ 96-well EIA/RIA Easy Wash™ Clear Flat Bottom Polystyrene High Bind Microplate coated overnight at 4° C. with 50 μL of Heparin (Sigma, H3149) diluted with 50 mM sodium carbonate pH 9.6 to a final concentration of 250 μg/mL. The plate was incubated for 2 days at room temperature, wells that were coated with heparin were not covered to allow air dry. […] 50 μL each of insulin, KLH, dsDNA and ssDNA were added to a 96 well plate, followed by the incubation at 37° C. for 2 h. The coating materials were removed, and the plate was blocked with 200 μL of Gibco™ PBS pH7.4, 0.1% Tween®20, and incubated for 1 h at room temperature with shaking at 200 rpm. The plate was washed 3 times with Gibco™ PBS pH7.4, 0.1% Tween 20. 50 μL of each mAb at 100 nM (15 mg/mL) in Gibco™ PBS pH 7.4, 0.1% Tween®20 was added in duplicate to the wells and incubated for 1 h at room temperature with shaking at 200 rpm. […] Plates were incubated for 1 h at room temperature, with shaking at 200 rpm. The plate was washed three times with Gibco™ PBS pH7.4, 0.1% Tween 20, and 100 μL of TMB substrate (Cell Signaling Technology©, 7004P6) added to each well. […] Binding scores were calculated as the ratio of the ELISA signal of the antibody to the signal of a well containing buffer instead of the primary antibody. The cutoffs considered for each binding molecule (ssDNA. KLH, Insulin, dsDNA and Heparin) were internally calculated, based on the average of Zymeworks Inc. produced antibodies and antibodies benchmarks published in the literature.
# [2] = molecular target: T1, human sodium-dependent phosphate …; experiment: cell-based or functional assay
# [3] = molecular target: T1, human sodium-dependent phosphate …; experiment: cell-based or functional assay; remark: listed apart in the source
# [4] = molecular target: T1, human sodium-dependent phosphate …; experiment: cell-based or functional assay; remark: listed apart in the source
# [5] = molecular target: T1, human sodium-dependent phosphate …; experiment: cell-based or functional assay; remark: listed apart in the source
# [6] = molecular target: T1, human sodium-dependent phosphate …; experiment: cell-based or functional assay; remark: listed apart in the source
binder,measurement,setting,value
B1,NS-ELISA binding score,[1],1.34
B2,"EC50 of cytotoxicity, H441 3D spheroids",[2],11.7 nM
same,"EC50 of cytotoxicity, IGROV-1 3D spheroids",[2],0.69 nM
same,"EC50 of cytotoxicity, TOV-21G 3D spheroids",[2],25.5 nM
B3,"EC50 of cytotoxicity, 2D monolayer, HCC-78 cells, 4 days, CellTiter-Glo (row printed as v29456-MT-GGFG-AM-DXd1)",[3],0.55 nM
same,"EC50 of cytotoxicity, 2D monolayer, IGROV-1 cells, 4 days, CellTiter-Glo (row printed as v29456-MT-GGFG-AM-DXd1)",[3],0.45 nM
same,"EC50 of cytotoxicity, HCC-78 3D spheroids, 6 days, CellTiter-Glo 3D",[4],0.6 nM
same,"EC50 of cytotoxicity, IGROV-1 3D spheroids, 6 days, CellTiter-Glo 3D",[4],0.27 nM
B4,"EC50 of cytotoxicity, 2D monolayer, IGROV-1 cells",[5],0.39 nM
same,"EC50 of cytotoxicity, 2D monolayer, TOV-21G cells",[5],4.3 nM
same,"EC50 of cytotoxicity, IGROV-1 3D spheroids",[6],0.31 nM
same,"EC50 of cytotoxicity, TOV-21G:HDFa (1:1) 3D spheroids",[6],0.24 nM
same,"EC50 of cytotoxicity, H441 3D spheroids",[2],1.57 nM
same,"EC50 of cytotoxicity, IGROV-1 3D spheroids",[2],0.55 nM
same,"EC50 of cytotoxicity, TOV-21G 3D spheroids",[2],0.54 nM
B5,"EC50 of cytotoxicity, 2D monolayer, IGROV-1 cells",[5],16.4 nM
same,"EC50 of cytotoxicity, IGROV-1 3D spheroids",[6],1.31 nM
same,"EC50 of cytotoxicity, TOV-21G:HDFa (1:1) 3D spheroids",[6],0.99 nM
B6,"EC50 of cytotoxicity, 2D monolayer, IGROV-1 cells",[5],3.01 nM
same,"EC50 of cytotoxicity, 2D monolayer, TOV-21G cells",[5],0.93 nM
same,"EC50 of cytotoxicity, IGROV-1 3D spheroids",[6],0.44 nM
same,"EC50 of cytotoxicity, TOV-21G:HDFa (1:1) 3D spheroids",[6],0.9 nM
B7,"EC50 of cytotoxicity, 2D monolayer, IGROV-1 cells",[5],5.46 nM
same,"EC50 of cytotoxicity, IGROV-1 3D spheroids",[6],0.88 nM
same,"EC50 of cytotoxicity, TOV-21G:HDFa (1:1) 3D spheroids",[6],0.76 nM
